Test results published in patent US20160257732A1 (published 2016).
Values joined by “and” are separate entries in the source; they are usually repeats but may differ in a detail not shown here. Equal values may be shown once. Read-outs that look alike come from different tables or passages of the source.

Assays:
Experiment in all cases: cell-based or functional assay
[1] = biological target: HA of ca A/swine/Missouri/06 (H2N3) (influenza A virus)
[2] = biological target: HA of ca A/Hong Kong/213/03 (H5N1) (influenza A virus)
[3] = biological target: HA of A/New Jersey/8/76 (H1N1) (influenza A virus)
[4] = biological target: T1, HA of ca A/Brit. Columbia/CN-6/04 (H7N3-LP) (influenza A virus)
[5] = biological target: HA of ca A/Beijing/262/95 (H1N1) (influenza A virus)
[6] = biological target: HA of A/Hong Kong/8/68 (H3N2) (influenza A virus)
[7] = biological target: HA of A/Victoria/361/11 (H3N2) (influenza A virus)
[8] = biological target: HA of ca A/Panama/2007/99 (H3N2) (influenza A virus)
[9] = biological target: HA of ca A/mallard/Alberta/89/85 (H6N2) (influenza A virus)
HA of virus H1-BS10 = biological target: HA of virus H1-BS10
[10] = biological target: HA of A/Victoria/3/75 (H3N2) (influenza A virus)
[11] = biological target: HA of ca A/Anhui/1/13 (H7N9) (influenza A virus)
[12] = biological target: HA of A/Kawasaki/9/86 (H1N1) (influenza A virus)
[13] = biological target: HA of ca A/Japan/57 (H2N2) (influenza A virus)
[14] = biological target: HA of ca A/Vietnam/1203/04 (H5N1) (influenza A virus)
[15] = biological target: HA of A/Wisconsin/67/05 (H3N2) (influenza A virus)
[16] = biological target: HA of A/Fort Monmouth/1/47 (H1N1) (influenza A virus)
[17] = biological target: HA of ca A/Perth/16/09 (H3N2) (influenza A virus)
[18] = biological target: HA of ca A/Texas/36/91 (H1N1) (influenza A virus)
[19] = biological target: T2, HA of ca A/chicken/Hong Kong/G9/97 (H9N2) (influenza A virus)
[20] = biological target: HA of ca A/New Caledonia/20/99 (H1N1) (influenza A virus)
[21] = biological target: HA of ca A/Sydney/5/97 (H3N2) (influenza A virus)
[22] = biological target: HA of ca A/teal/Hong Kong/W312/97 (H6N1) (influenza A virus)
[23] = biological target: HA of ca A/Netherlands/219/03 (H7N7) (influenza A virus)
[24] = biological target: HA of swine-origin A/Minnesota/11/2010 H3N2 virus (influenza A virus)
[25] = biological target: HA of ca A/swine/Missouri/06 (H2N3) (influenza A virus); remark: listed apart in the source
[26] = biological target: HA of ca A/Hong Kong/213/03 (H5N1) (influenza A virus); remark: listed apart in the source
[27] = biological target: HA of A/New Jersey/8/76 (H1N1) (influenza A virus); remark: listed apart in the source
[28] = biological target: T1, HA of ca A/Brit. Columbia/CN-6/04 …; remark: listed apart in the source
[29] = biological target: HA of A/Wyoming/03/03 (H3N2) (influenza A virus)
[30] = biological target: HA of ca A/Beijing/262/95 (H1N1) (influenza A virus); remark: listed apart in the source
[31] = biological target: HA of A/Hong Kong/8/68 (H3N2) (influenza A virus); remark: listed apart in the source
[32] = biological target: HA of ca A/Panama/2007/99 (H3N2) (influenza A virus); remark: listed apart in the source
[33] = biological target: HA of A/Victoria/3/75 (H3N2) (influenza A virus); remark: listed apart in the source
[34] = biological target: HA of A/Kawasaki/9/86 (H1N1) (influenza A virus); remark: listed apart in the source
[35] = biological target: HA of ca A/Vietnam/1203/04 (H5N1) (influenza A virus); remark: listed apart in the source
[36] = biological target: HA of A/Wisconsin/67/05 (H3N2) (influenza A virus); remark: listed apart in the source
[37] = biological target: HA of A/Fort Monmouth/1/47 (H1N1) (influenza A virus); remark: listed apart in the source
[38] = biological target: HA of ca A/Perth/16/09 (H3N2) (influenza A virus); remark: listed apart in the source
[39] = biological target: HA of ca A/Texas/36/91 (H1N1) (influenza A virus); remark: listed apart in the source
[40] = biological target: T2, HA of ca A/chicken/Hong Kong/G9/97 …; remark: listed apart in the source
[41] = biological target: HA of ca A/New Caledonia/20/99 (H1N1) (influenza A virus); remark: listed apart in the source
[42] = biological target: HA of ca A/Sydney/5/97 (H3N2) (influenza A virus); remark: listed apart in the source
[43] = biological target: HA of ca A/teal/Hong Kong/W312/97 (H6N1) (influenza A virus); remark: listed apart in the source
[44] = biological target: HA of ca A/Netherlands/219/03 (H7N7) (influenza A virus); remark: listed apart in the source

B1: Antibody 3 (antibody, V domains shown)
VH: QVQLQESGPGLVKPSQTLSLTCAISGDSVSSNNAVWNWIRQSPSRGLEWLGRTYYRSKWYNDYAESVKSRITVNPDTSKNQFSLHLKSVTPEDTAVFYCVRSGHITVFGVNVDAFDMWGQGTMVTVSS
VL: DIQMTQSPSSLSASVGDRVTITCRTSQSLSSYLHWYQQKPGKAPKLLIYAASSLQSGVPSRFSGSGSGTDFTLTISSLQPEDFATYYCQQSRTFGQGTKVEIK
- Neutralization IC50, H2-MO06 [1]: 1.09 µg/mL
- Neutralization IC50, H5-HK03 [2]: 0.71 µg/mL
- Neutralization IC50, H1-NJ76 [3]: 0.57 µg/mL
- Neutralization IC50, H7-BC04 [4]: 2.95 µg/mL
- Neutralization IC50, H1-BJ95 [5]: 2.98 µg/mL
- Neutralization IC50, H3-HK68 [6]: 1.37 µg/mL
- Neutralization IC50, H3-VC11 [7]: 3.4 µg/mL
- Neutralization IC50, H3-Pa99 [8]: 9 µg/mL
- Neutralization IC50, H6-AB85 [9]: 0.69 µg/mL
- Neutralization IC50, H1-BS10 (HA of virus H1-BS10): 2.16 µg/mL
- Neutralization IC50, H3-Vic75 [10]: 1.12 µg/mL
- Neutralization IC50, H7-ANU13 [11]: 4.26 µg/mL
- Neutralization IC50, H1-Kaw86 [12]: 1.01 µg/mL
- Neutralization IC50, H2-JP57 [13]: 0.46 µg/mL
- Neutralization IC50, H5-VM04 [14]: 1.19 µg/mL
- Neutralization IC50, H3-WI05 [15]: 2.62 µg/mL
- Neutralization IC50, H1-FM47 [16]: 1.04 µg/mL
- Neutralization IC50, H3-Perth09 [17]: 1.3 µg/mL
- Neutralization IC50, H1-TX91 [18]: 0.92 µg/mL
- Neutralization IC50, H9-HK97 [19]: 1.18 µg/mL
- Neutralization IC50, H1-Ncal99 [20]: 1.16 µg/mL
- Neutralization IC50, H3-Syd97 [21]: 6.5 µg/mL
- Neutralization IC50, H6-HK97 [22]: 0.63 µg/mL
- Neutralization IC50, H7-NLD03 [23]: 4.74 µg/mL
- Neutralizing activity IC50, swine-origin A/Minnesota/11/2010 [24]: 2.2 µg/mL and 4.2 µg/mL
- Neutralization IC50, H2-MO06 [25]: 2.27 µg/mL
- Neutralization IC50, H5-HK03 [26]: 4.64 µg/mL
- Neutralization IC50, H1-NJ76 [27]: 1.41 µg/mL
- Neutralization IC50, H7-BC04 [28]: 4.72 µg/mL
- Neutralization IC50, H3-Wy03 [29]: 0.63 µg/mL
- Neutralization IC50, H1-BJ95 [30]: 3.41 µg/mL
- Neutralization IC50, H3-HK68 [31]: 0.68 µg/mL
- Neutralization IC50, H3-Pa99 [32]: 17.7 µg/mL
- Neutralization IC50, H3-Vic75 [33]: 0.75 µg/mL
- Neutralization IC50, H1-Kaw86 [34]: 0.58 µg/mL
- Neutralization IC50, H5-VM04 [35]: 2.11 µg/mL
- Neutralization IC50, H3-WI05 [36]: 2.44 µg/mL
- Neutralization IC50, H1-FM47 [37]: 0.92 µg/mL
- Neutralization IC50, H3-Perth09 [38]: 1.49 µg/mL
- Neutralization IC50, H1-TX91 [39]: 0.6 µg/mL
- Neutralization IC50, H9-HK97 [40]: 1.79 µg/mL
- Neutralization IC50, H1-Ncal99 [41]: 0.79 µg/mL
- Neutralization IC50, H3-Syd97 [42]: 3.75 µg/mL
- Neutralization IC50, H6-HK97 [43]: 1.77 µg/mL
- Neutralization IC50, H7-NLD03 [44]: 4.78 µg/mL
